{"source": "paper PMC3285688", "about": "“Active Site Mutations Change the Cleavage Specificity of Neprilysin” (PLoS ONE, 2012)", "assay_type_in_all_cases": "biochemical", "key": {"[1]": {"test_system": "insulin B chain", "assay": "Rate of insulin B chain hydrolysis (HPLC)", "details": "15 µM insulin B chain, 37°C, 20 mM MES buffer, pH 6.5; disappearance of substrate by HPLC; at least triplicate", "description": "(§1) Cleavage of physiological peptides was measured via reverse phase high performance liquid chromatography (HPLC) following incubation of the purified NEP or its mutants with 15 µM insulin B chain (Sigma Aldrich), 24 µM Aß1–40 (Anaspec), or 64 µM leu-ENK (Sigma) in 100 µL of 20 mM MES, pH 6.5, at 37°C. Reactions were run in triplicate. HPLC was carried out in a Vydac C4 column using a linear gradient from 0.1% trifluoroacetic acid (TFA) in 95% water, 5% acetonitrile to 0.1% TFA in 50% acetonitrile/water at a flow rate of 1 mL/min. Peptides and hydrolysis products were detected at 214 nm and quantified by measuring peak areas. Peptides obtained from HPLC were analyzed on an Applied Biosystems 4800 MALDI TOF/TOF Proteomics Analyzer at the University of Kentucky Proteomics core. This facility is supported in part by grant P20RR020171 from the NIH/NCRR.\n(§2) Statistical analysis comparing wild-type NEP and its mutants was performed with Prism 4 software using a two-tailed paired t-test with a 95% confidence interval."}, "[2]": {"test_system": "insulin B chain", "assay": "Dual substrate assay: insulin B chain hydrolysis in presence of leu-ENK", "details": "15 µM insulin B chain and 64 µM leu-ENK together, 37°C, 20 mM MES buffer, pH 6.5", "description": "(§3) The rate of cleavage of a substrate mixture is determined by both the kcat for that substrate as well by the affinity for the substrate. […] This is expected, given that each peptide acts as a competitive inhibitor of the other. […] That is the ratio for leu-ENK/insulin B chain cleavage is 3 for NEP^S546E compared to 6 for wild-type NEP.\nas §1"}, "[3]": {"test_system": "leu-ENK and insulin B chain", "assay": "Dual substrate assay: substrate preference leu-ENK versus insulin B chain", "description": "as §3, §1"}, "[4]": {"biological_target": "insulin B chain", "assay": "Insulin B chain as alternate substrate (competitive) inhibitor of Glut-Ala-Ala-Phe-MNA hydrolysis (Dixon plot)", "details": "insulin B chain 1 to 40 µM as competitive inhibitor of Glut-Ala-Ala-Phe-MNA hydrolysis by the enzyme form, 37°C, 20 mM MES, pH 6.5, ID50 converted to Ki", "description": "(§4) Kinetic constants for NEP and its mutants were obtained using the assay conditions noted above, but with Glut-Ala-Ala-Phe-MNA varied from 20 to 500 µM. Typically 12 data points were obtained. The data were fit to the Michaelis-Menten equation using Prism4 software. The Ki for insulin B chain was obtained by measuring the rate of Glut-Ala-Ala-Phe-MNA hydrolysis in the presence of varying concentrations of insulin B chain from 1 to 40 µM. Data were fit to a Dixon plot (1/rate versus [insulin B chain]) using Prism4 software and the ID50 obtained as the –x intercept, where ID50 corresponds to the concentration of insulin producing 50% inhibition. The actual Ki was obtained from the equation: ID50 = Ki (1+ [Glut-Ala-Ala-Phe-MNA]/KmGlut-Ala-Ala-Phe-MNA), [33]."}, "[5]": {"test_system": "Aß1–40", "assay": "Rate of Aß1–40 hydrolysis (HPLC)", "details": "24 µM Aß1–40, 37°C, 20 mM MES buffer, pH 6.5; disappearance of substrate by HPLC; at least triplicate", "description": "as §1, §2"}, "[6]": {"assay": "Hydrolysis of synthetic substrate Glut-Ala-Ala-Phe-MNA by NEP and mutants (fluorogenic)", "details": "for Km: Glut-Ala-Ala-Phe-MNA 20 to 500 µM, Michaelis-Menten fit; for Activity relative to wild-type enzyme (Glut-Ala-Ala-Phe-MNA): pH 6.5, 37°C", "description": "Reactions of 400 µl contained 100 µM Glut-Ala-Ala-Phe-MNA, 1 µg of aminopeptidase and 15 to 100 ng of NEP or mutant NEP depending on their activity in 20 mM MES buffer, pH 6.5. Activity was monitored with a Spectra Max Gemini XS plate reader using an excitation wavelength of 340 nm and an emission wavelength of 425 nm.\nas §4"}, "[7]": {"test_system": "leu-ENK", "assay": "Rate of leu-ENK hydrolysis (HPLC)", "description": "as §1, §2"}, "[8]": {"test_system": "leu-ENK", "assay": "Dual substrate assay: leu-ENK hydrolysis in presence of insulin B chain", "details": "15 µM insulin B chain and 64 µM leu-ENK together, 37°C, 20 mM MES buffer, pH 6.5", "description": "as §3, §1"}}}
{"molecule": "NEP^F563V: neprilysin active site mutant, Phe563 to valine (protein, UniProt P08473 2-750, looked up, variant F563V) Neprilysin: GKSESQMDITDINTPKPKKKQRWTPLEISLSVLVLLLTIIAVTMIALYATYDDGICKSSDCIKSAARLIQNMDATTEPCTDFFKYACGGWLKRNVIPETSSRYGNFDILRDELEVVLKDVLQEPKTEDIVAVQKAKALYRSCINESAIDSRGGEPLLKLLPDIYGWPVATENWEQKYGASWTAEKAIAQLNSKYGKKVLINLFVGTDDKNSVNHVIHIDQPRLGLPSRDYYECTGIYKEACTAYVDFMISVARLIRQEERLPIDENQLALEMNKVMELEKEIANATAKPEDRNDPMLLYNKMTLAQIQNNFSLEINGKPFSWLNFTNEIMSTVNISITNEEDVVVYAPEYLTKLKPILTKYSARDLQNLMSWRFIMDLVSSLSRTYKESRNAFRKALYGTTSETATWRRCANYVNGNMENAVGRLYVEAAFAGESKHVVEDLIAQIREVFIQTLDDLTWMDAETKKRAEEKALAIKERIGYPDDIVSNDNKLNNEYLELNYKEDEYFENIIQNLKFSQSKQLKKLREKVDKDEWISGAAVVNAFYSSGRNQIVFPAGILQPPVFSAQQSNSLNYGGIGMVIGHEITHGFDDNGRNFNKDGDLVDWWTQQSASNFKEQSQCMVYQYGNFSWDLAGGQHLNGINTLGENIADNGGLGQAYRAYQNYIKKNGEEKLLPGLDLNHKQLFFLNFAQVWCGTYRPEYAVNSIKTDVHSPGNFRIIGTLQNSAEFSEAFHCRKNSYMNPEKKCRVW", "values": [{"measurement": "Rate of hydrolysis of Insulin B Chain", "setting": "[1]", "result": "0.06 ± 0.02", "unit": "pmol/min/ng"}, {"measurement": "Insulin B Chain hydrolysis rate, dual substrate assay", "setting": "[2]", "result": "0.04 ± 0.01", "unit": "pmol/min/ng"}, {"measurement": "Insulin B Chain hydrolysis, activity relative to the uninhibited value", "setting": "[2]; numbers in parenthesis", "result": 0.67}, {"measurement": "Substrate preference leu-ENK/insulin B chain (in words)", "setting": "[3]; dual substrate assay, versus wild-type", "result": "no change in overall substrate preference"}, {"measurement": "Ratio leu-ENK insulin B chain", "setting": "[3]; ratio of rates, 15 µM insulin B chain and 64 µM leu-ENK together", "result": 5.8}, {"measurement": "Ki", "setting": "[4]", "result": "1000 ± 100", "unit": "nM"}, {"measurement": "Rate of hydrolysis of Aß1–40", "setting": "[5]", "result": "14 ± 1", "unit": "fmol/min/ng"}, {"measurement": "Specific Activity (Glut-Ala-Ala-Phe-MNA cleavage)", "setting": "[6]; 100 µM Glut-Ala-Ala-Phe-MNA, 37°C, 20 mM MES buffer, pH 6.5, fluorescence ex 340 nm, em 425 nm", "result": "11.2 ± 0.3", "unit": "pmol/min/ng"}, {"measurement": "Km", "setting": "[6]; 37°C, 20 mM MES buffer, pH 6.5", "result": "51 ± 10", "unit": "µM"}, {"measurement": "Activity relative to wild-type enzyme (Glut-Ala-Ala-Phe-MNA)", "setting": "[6]", "result": "~25", "unit": "%"}, {"measurement": "leu-ENK cleavage rate as fraction of wild-type rate", "setting": "[7]; 64 µM leu-ENK", "result": "1/6"}, {"measurement": "Rate of hydrolysis of leu-ENK", "setting": "[7]; 64 µM leu-ENK, 37°C, 20 mM MES buffer, pH 6.5, disappearance of substrate by HPLC, at least triplicate", "result": "0.31 ± 0.02", "unit": "pmol/min/ng"}, {"measurement": "leu-ENK cleavage rate relative to wild-type NEP rate", "setting": "[7]; 64 µM leu-ENK, pH 6.5, 37°C", "result": "less than 20%"}, {"measurement": "Increase in preference for leu-ENK (over Aß1–40)", "setting": "[7]; relative to NEP, from separate single-substrate rates", "result": "two fold"}, {"measurement": "leu-ENK hydrolysis rate, dual substrate assay", "setting": "[8]", "result": "0.23 ± 0.03", "unit": "pmol/min/ng"}, {"measurement": "leu-ENK hydrolysis, activity relative to the uninhibited value", "setting": "[8]; numbers in parenthesis", "result": 0.74}]}
{"molecule": "NEP^S546T: neprilysin active site mutant, Ser546 to threonine (protein, UniProt P08473 2-750, looked up, variant S546T) Neprilysin: GKSESQMDITDINTPKPKKKQRWTPLEISLSVLVLLLTIIAVTMIALYATYDDGICKSSDCIKSAARLIQNMDATTEPCTDFFKYACGGWLKRNVIPETSSRYGNFDILRDELEVVLKDVLQEPKTEDIVAVQKAKALYRSCINESAIDSRGGEPLLKLLPDIYGWPVATENWEQKYGASWTAEKAIAQLNSKYGKKVLINLFVGTDDKNSVNHVIHIDQPRLGLPSRDYYECTGIYKEACTAYVDFMISVARLIRQEERLPIDENQLALEMNKVMELEKEIANATAKPEDRNDPMLLYNKMTLAQIQNNFSLEINGKPFSWLNFTNEIMSTVNISITNEEDVVVYAPEYLTKLKPILTKYSARDLQNLMSWRFIMDLVSSLSRTYKESRNAFRKALYGTTSETATWRRCANYVNGNMENAVGRLYVEAAFAGESKHVVEDLIAQIREVFIQTLDDLTWMDAETKKRAEEKALAIKERIGYPDDIVSNDNKLNNEYLELNYKEDEYFENIIQNLKFSQSKQLKKLREKVDKDEWISGAAVVNAFYTSGRNQIVFPAGILQPPFFSAQQSNSLNYGGIGMVIGHEITHGFDDNGRNFNKDGDLVDWWTQQSASNFKEQSQCMVYQYGNFSWDLAGGQHLNGINTLGENIADNGGLGQAYRAYQNYIKKNGEEKLLPGLDLNHKQLFFLNFAQVWCGTYRPEYAVNSIKTDVHSPGNFRIIGTLQNSAEFSEAFHCRKNSYMNPEKKCRVW", "values": [{"measurement": "Km", "setting": "[6]; 37°C, 20 mM MES buffer, pH 6.5", "result": "73 ± 6", "unit": "µM"}]}
{"molecule": "NEP^F563K: neprilysin active site mutant, Phe563 to lysine (low expressing) (protein, UniProt P08473 2-750, looked up, variant F563K) Neprilysin: GKSESQMDITDINTPKPKKKQRWTPLEISLSVLVLLLTIIAVTMIALYATYDDGICKSSDCIKSAARLIQNMDATTEPCTDFFKYACGGWLKRNVIPETSSRYGNFDILRDELEVVLKDVLQEPKTEDIVAVQKAKALYRSCINESAIDSRGGEPLLKLLPDIYGWPVATENWEQKYGASWTAEKAIAQLNSKYGKKVLINLFVGTDDKNSVNHVIHIDQPRLGLPSRDYYECTGIYKEACTAYVDFMISVARLIRQEERLPIDENQLALEMNKVMELEKEIANATAKPEDRNDPMLLYNKMTLAQIQNNFSLEINGKPFSWLNFTNEIMSTVNISITNEEDVVVYAPEYLTKLKPILTKYSARDLQNLMSWRFIMDLVSSLSRTYKESRNAFRKALYGTTSETATWRRCANYVNGNMENAVGRLYVEAAFAGESKHVVEDLIAQIREVFIQTLDDLTWMDAETKKRAEEKALAIKERIGYPDDIVSNDNKLNNEYLELNYKEDEYFENIIQNLKFSQSKQLKKLREKVDKDEWISGAAVVNAFYSSGRNQIVFPAGILQPPKFSAQQSNSLNYGGIGMVIGHEITHGFDDNGRNFNKDGDLVDWWTQQSASNFKEQSQCMVYQYGNFSWDLAGGQHLNGINTLGENIADNGGLGQAYRAYQNYIKKNGEEKLLPGLDLNHKQLFFLNFAQVWCGTYRPEYAVNSIKTDVHSPGNFRIIGTLQNSAEFSEAFHCRKNSYMNPEKKCRVW", "values": [{"measurement": "Activity relative to wild-type enzyme (Glut-Ala-Ala-Phe-MNA)", "setting": "[6]", "result": "< 1", "unit": "%"}]}
{"molecule": "NEP^S546A: neprilysin active site mutant, Ser546 to alanine (protein, UniProt P08473 2-750, looked up, variant S546A) Neprilysin: GKSESQMDITDINTPKPKKKQRWTPLEISLSVLVLLLTIIAVTMIALYATYDDGICKSSDCIKSAARLIQNMDATTEPCTDFFKYACGGWLKRNVIPETSSRYGNFDILRDELEVVLKDVLQEPKTEDIVAVQKAKALYRSCINESAIDSRGGEPLLKLLPDIYGWPVATENWEQKYGASWTAEKAIAQLNSKYGKKVLINLFVGTDDKNSVNHVIHIDQPRLGLPSRDYYECTGIYKEACTAYVDFMISVARLIRQEERLPIDENQLALEMNKVMELEKEIANATAKPEDRNDPMLLYNKMTLAQIQNNFSLEINGKPFSWLNFTNEIMSTVNISITNEEDVVVYAPEYLTKLKPILTKYSARDLQNLMSWRFIMDLVSSLSRTYKESRNAFRKALYGTTSETATWRRCANYVNGNMENAVGRLYVEAAFAGESKHVVEDLIAQIREVFIQTLDDLTWMDAETKKRAEEKALAIKERIGYPDDIVSNDNKLNNEYLELNYKEDEYFENIIQNLKFSQSKQLKKLREKVDKDEWISGAAVVNAFYASGRNQIVFPAGILQPPFFSAQQSNSLNYGGIGMVIGHEITHGFDDNGRNFNKDGDLVDWWTQQSASNFKEQSQCMVYQYGNFSWDLAGGQHLNGINTLGENIADNGGLGQAYRAYQNYIKKNGEEKLLPGLDLNHKQLFFLNFAQVWCGTYRPEYAVNSIKTDVHSPGNFRIIGTLQNSAEFSEAFHCRKNSYMNPEKKCRVW", "values": [{"measurement": "Km", "setting": "[6]; 37°C, 20 mM MES buffer, pH 6.5", "result": "118 ± 7", "unit": "µM"}]}
